Measured values reported in PMC8439434.

Key:
[1] = biological target: HLA-B*08:01 (human (endogenous in the Steinlin EBV transformed cell line)); test: radioligand binding; previously validated B*08:01 inhibition of binding assay (ref. 10); radiolabeled probe not named
[2] = biological target: HLA-C*07:01 purified from the Steinlin EBV transformed homozygous cell line (human (endogenous in the Steinlin EBV transformed cell line)); test: radioligand binding; classical MHC-peptide inhibition of binding assay specific for HLA-C*07:01: purified MHC from the Steinlin line, radiolabeled 3424.0028 as probe, test peptides as inhibitors, anti-HLA Class I B123.2 mAb

Substance: peptide 3424.0028 (…, DNA replication licensing factor MCM5 289-297)
- fold lower affinity than in the C*07:01 assay [1]: 1500 fold
- affinity (from inhibition of binding) [2]: 0.21 nM
